Holding throughout (experiment): FRET or BRET
Series [1] has as its target hFSHR(Y110A,H485A,S488A,M492A,I495A,F504A), as Rluc and GFP2 fusion proteins (human) (UniProt P23945).
Series [2] deals with hFSHR(H485A,S488A,M492A,I495A,F504A), as Rluc and GFP2 fusion proteins (human) (UniProt P23945).
The series “FRET or BRET” concerns the molecule itself.

This is an account of results in PMC2787667 (Cellular signalling, 2009).

In series [1], “hFSHR(Y110A,H485A,S488A,M492A,I495A,F504A), as Rluc and GFP2 fusion proteins (from UniProt P23945 18-695) (receptor)” returned a BRET50 mut/BRET50 wt of 1.29.
In series [2], “hFSHR(H485A,S488A,M492A,I495A,F504A), as Rluc and GFP2 fusion proteins (from UniProt P23945 18-695) (receptor)” came in with a BRET50 mut/BRET50 wt of 1.41.

B1: hFSHR(M490A,W494A,I495A), as Rluc and GFP2 fusion proteins (receptor, human, UniProt P23945 18-695, looked up)
chain: CHHRICHCSNRVFLCQESKVTEIPSDLPRNAIELRFVLTKLRVIQKGAFSGFGDLEKIEISQNDVLEVIEADVFSNLPKLHEIRIEKANNLLYINPEAFQNLPNLQYLLISNTGIKHLPDVHKIHSLQKVLLDIQDNINIHTIERNSFVGLSFESVILWLNKNGIQEIHNCAFNGTQLDELNLSDNNNLEELPNDVFHGASGPVILDISRTRIHSLPSYGLENLKKLRARSTYNLKKLPTLEKLVALMEASLTYPSHCCAFANWRRQISELHPICNKSILRQEVDYMTQARGQRSSLAEDNESSYSRGFDMTYTEFDYDLCNEVVDVTCSPKPDAFNPCEDIMGYNILRVLIWFISILAITGNIIVLVILTTSQYKLTVPRFLMCNLAFADLCIGIYLLLIASVDIHTKSQYHNYAIDWQTGAGCDAAGFFTVFASELSVYTLTAITLERWHTITHAMQLDCKVQLRHAASVAVMGAAFAFAAALFPIFGISSYMKVSICLPMDIDSPLSQLYVMSLLVLNVLAFVVICGCYIHIYLTVRNPNIVSSSSDTRIAKRMAMLIFTDFLCMAPISFFAISASLKVPLITVSKAKILLVLFHPINSCANPFLYAIFTKNFRRDFFILLSKCGCYEMQAQIYRTETSSTVHNTHPRNGHCSSAPRVTSGSTYILVPLSHLAQN
For B1, the “BRET50 mut/BRET50 wt” value in “FRET or BRET” worked out at 1.5 ratio.

B2: hFSHR(I381A,V491A), as Rluc and GFP2 fusion proteins (receptor, human, UniProt P23945 18-695, looked up)
chain: CHHRICHCSNRVFLCQESKVTEIPSDLPRNAIELRFVLTKLRVIQKGAFSGFGDLEKIEISQNDVLEVIEADVFSNLPKLHEIRIEKANNLLYINPEAFQNLPNLQYLLISNTGIKHLPDVHKIHSLQKVLLDIQDNINIHTIERNSFVGLSFESVILWLNKNGIQEIHNCAFNGTQLDELNLSDNNNLEELPNDVFHGASGPVILDISRTRIHSLPSYGLENLKKLRARSTYNLKKLPTLEKLVALMEASLTYPSHCCAFANWRRQISELHPICNKSILRQEVDYMTQARGQRSSLAEDNESSYSRGFDMTYTEFDYDLCNEVVDVTCSPKPDAFNPCEDIMGYNILRVLIWFISILAITGNAIVLVILTTSQYKLTVPRFLMCNLAFADLCIGIYLLLIASVDIHTKSQYHNYAIDWQTGAGCDAAGFFTVFASELSVYTLTAITLERWHTITHAMQLDCKVQLRHAASVMAMGWIFAFAAALFPIFGISSYMKVSICLPMDIDSPLSQLYVMSLLVLNVLAFVVICGCYIHIYLTVRNPNIVSSSSDTRIAKRMAMLIFTDFLCMAPISFFAISASLKVPLITVSKAKILLVLFHPINSCANPFLYAIFTKNFRRDFFILLSKCGCYEMQAQIYRTETSSTVHNTHPRNGHCSSAPRVTSGSTYILVPLSHLAQN
In the case of B2, the “BRET50 mut/BRET50 wt” value in “FRET or BRET” was 1.69 ratio.

B3: hFSHR(I382A,V383A,M490A,V491A), as Rluc and GFP2 fusion proteins (receptor, human, UniProt P23945 18-695, looked up)
chain: CHHRICHCSNRVFLCQESKVTEIPSDLPRNAIELRFVLTKLRVIQKGAFSGFGDLEKIEISQNDVLEVIEADVFSNLPKLHEIRIEKANNLLYINPEAFQNLPNLQYLLISNTGIKHLPDVHKIHSLQKVLLDIQDNINIHTIERNSFVGLSFESVILWLNKNGIQEIHNCAFNGTQLDELNLSDNNNLEELPNDVFHGASGPVILDISRTRIHSLPSYGLENLKKLRARSTYNLKKLPTLEKLVALMEASLTYPSHCCAFANWRRQISELHPICNKSILRQEVDYMTQARGQRSSLAEDNESSYSRGFDMTYTEFDYDLCNEVVDVTCSPKPDAFNPCEDIMGYNILRVLIWFISILAITGNIAALVILTTSQYKLTVPRFLMCNLAFADLCIGIYLLLIASVDIHTKSQYHNYAIDWQTGAGCDAAGFFTVFASELSVYTLTAITLERWHTITHAMQLDCKVQLRHAASVAAMGWIFAFAAALFPIFGISSYMKVSICLPMDIDSPLSQLYVMSLLVLNVLAFVVICGCYIHIYLTVRNPNIVSSSSDTRIAKRMAMLIFTDFLCMAPISFFAISASLKVPLITVSKAKILLVLFHPINSCANPFLYAIFTKNFRRDFFILLSKCGCYEMQAQIYRTETSSTVHNTHPRNGHCSSAPRVTSGSTYILVPLSHLAQN
Consider B3, for which, in the series “FRET or BRET”, the “BRET50 mut/BRET50 wt” value worked out at 0.934 ratio.

B4: hFSHR(W436A,W494A), as Rluc and GFP2 fusion proteins (receptor, human, UniProt P23945 18-695, looked up)
chain: CHHRICHCSNRVFLCQESKVTEIPSDLPRNAIELRFVLTKLRVIQKGAFSGFGDLEKIEISQNDVLEVIEADVFSNLPKLHEIRIEKANNLLYINPEAFQNLPNLQYLLISNTGIKHLPDVHKIHSLQKVLLDIQDNINIHTIERNSFVGLSFESVILWLNKNGIQEIHNCAFNGTQLDELNLSDNNNLEELPNDVFHGASGPVILDISRTRIHSLPSYGLENLKKLRARSTYNLKKLPTLEKLVALMEASLTYPSHCCAFANWRRQISELHPICNKSILRQEVDYMTQARGQRSSLAEDNESSYSRGFDMTYTEFDYDLCNEVVDVTCSPKPDAFNPCEDIMGYNILRVLIWFISILAITGNIIVLVILTTSQYKLTVPRFLMCNLAFADLCIGIYLLLIASVDIHTKSQYHNYAIDAQTGAGCDAAGFFTVFASELSVYTLTAITLERWHTITHAMQLDCKVQLRHAASVMVMGAIFAFAAALFPIFGISSYMKVSICLPMDIDSPLSQLYVMSLLVLNVLAFVVICGCYIHIYLTVRNPNIVSSSSDTRIAKRMAMLIFTDFLCMAPISFFAISASLKVPLITVSKAKILLVLFHPINSCANPFLYAIFTKNFRRDFFILLSKCGCYEMQAQIYRTETSSTVHNTHPRNGHCSSAPRVTSGSTYILVPLSHLAQN
Take B4: in “FRET or BRET”, the “BRET50 mut/BRET50 wt” value was 1.29 ratio.

B5: hFSHR(Y110A), full-length, as Rluc and GFP2 fusion proteins (receptor, human, UniProt P23945 18-695, looked up)
chain: CHHRICHCSNRVFLCQESKVTEIPSDLPRNAIELRFVLTKLRVIQKGAFSGFGDLEKIEISQNDVLEVIEADVFSNLPKLHEIRIEKANNLLAINPEAFQNLPNLQYLLISNTGIKHLPDVHKIHSLQKVLLDIQDNINIHTIERNSFVGLSFESVILWLNKNGIQEIHNCAFNGTQLDELNLSDNNNLEELPNDVFHGASGPVILDISRTRIHSLPSYGLENLKKLRARSTYNLKKLPTLEKLVALMEASLTYPSHCCAFANWRRQISELHPICNKSILRQEVDYMTQARGQRSSLAEDNESSYSRGFDMTYTEFDYDLCNEVVDVTCSPKPDAFNPCEDIMGYNILRVLIWFISILAITGNIIVLVILTTSQYKLTVPRFLMCNLAFADLCIGIYLLLIASVDIHTKSQYHNYAIDWQTGAGCDAAGFFTVFASELSVYTLTAITLERWHTITHAMQLDCKVQLRHAASVMVMGWIFAFAAALFPIFGISSYMKVSICLPMDIDSPLSQLYVMSLLVLNVLAFVVICGCYIHIYLTVRNPNIVSSSSDTRIAKRMAMLIFTDFLCMAPISFFAISASLKVPLITVSKAKILLVLFHPINSCANPFLYAIFTKNFRRDFFILLSKCGCYEMQAQIYRTETSSTVHNTHPRNGHCSSAPRVTSGSTYILVPLSHLAQN
As to B5, the “BRET50 mut/BRET50 wt” value in the series “FRET or BRET” turned out to be 1.74 ratio.
